The record followed here is the RNAGym collection of RNA variant scans (doi:10.1093/nar/gkz1192).

The chains are these.
B1: CPEB3 Ribozyme (parent)
chain: UAACAGGGGGCCACAGCAGAAGCGUUCACGUCGCAGCCCCUGUCAGAUUCUGGUGAAUCUGCGAAUUCUGCUGUAUAUCUC

The variants in this data set derive from B1. Briefly: self-cleavage, relative activity (ratio to wild type); higher = more cleavage; in vitro, sequencing. The method, boiled down:
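Relative activity compares each variant's cleaved/total read fraction with that of the unmutated ribozyme. To get these fractions, barcoded CPEB3 ribozyme libraries from rounds of error-prone PCR were transcribed with T7 RNA polymerase for 5 hours at 37°C and then given 15 min of DNase I treatment before EDTA was added. The RNAs were reverse transcribed with template switching and sequenced on Illumina, and DNA sequencing linked barcodes to variants. A minimum of 5 reads applied, and three batches were averaged.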
Consider C17U G46U, for which the self-cleavage turned out to be 0.23.

Consider C17A U41A, for which the self-cleavage turned out to be 0.1.

For the variant C17U C71A, the self-cleavage turned out to be 0.15.

For the variant G16C U74C, the self-cleavage was determined as 0.25.

For the variant G16C U74A, the self-cleavage came out at 0.38.

As for C17U A64G, the self-cleavage was found to be 0.52.

In the case of C17U A64U, the self-cleavage is 0.3.

In the case of C17A U72G, the self-cleavage was found to be 0.16.

In the case of G16C A47G, the self-cleavage stood at 0.25.

For the variant C17A A45U, the self-cleavage was determined as 0.22.

With C17U A77G, the self-cleavage was 0.69.

Take G16C A77G: the self-cleavage is 0.21.

On to C17G U58C, for which the self-cleavage stood at 0.22.

Take C17A A65U: the self-cleavage turned out to be 0.15.

Turning to C17G A47G, the self-cleavage was 0.28.

Turning to G16A A21G, the self-cleavage was 0.16.

For the variant G16A A21U, the self-cleavage came to 0.2.

G16A U67A: the self-cleavage was determined as 0.34.

G16A U67C: the self-cleavage was 0.11.

On to G16U U41C, for which the self-cleavage turned out to be 0.41.

On to G16A U74A, for which the self-cleavage worked out at 1.21.

For G16A U74C, the self-cleavage stood at 0.77.

Turning to A15U U48C, the self-cleavage came out at 0.33.

Take A15U U48G: the self-cleavage is 0.35.

Turning to A15U U48A, the self-cleavage was determined as 0.17.

Regarding C17G A18G, the self-cleavage worked out at 0.11.

For C17G A18U, the self-cleavage was determined as 0.4.

On to C17G G33A, for which the self-cleavage came out at 0.24.

For the variant C17U C68U, the self-cleavage was found to be 0.51.

As for C17U G73A, the self-cleavage worked out at 1.09.

Take A15U U31A: the self-cleavage worked out at 0.45.

Turning to A15U U31G, the self-cleavage came out at 0.39.

On to A15U U31C, for which the self-cleavage worked out at 0.35.

For the variant C17G U51C, the self-cleavage was determined as 0.6.

G16U A45G: the self-cleavage amounted to 0.21.

Regarding G16U A45U, the self-cleavage is 0.21.

Take C17U A35G: the self-cleavage was 1.26.

For the variant C17A A57G, the self-cleavage was 0.34.

As to G16U G33C, the self-cleavage was found to be 0.09.

As for G16U G33A, the self-cleavage came to 0.32.

For C17U A65U, the self-cleavage stood at 0.55.

G16C U26C: the self-cleavage was determined as 0.23.

With G16C U26A, the self-cleavage worked out at 0.3.

G16U U54G: the self-cleavage worked out at 0.55.

In the case of C17G U54A, the self-cleavage is 0.54.

As to C17U A47U, the self-cleavage is 0.33.

For the variant C17A G53A, the self-cleavage stood at 0.68.

As to G16C U51G, the self-cleavage was found to be 0.52.

As to G16C U51A, the self-cleavage stood at 0.11.

On to G16A U43C, for which the self-cleavage was 0.39.

Turning to G16A U43A, the self-cleavage came to 0.74.

Regarding G16U A56G, the self-cleavage amounted to 0.28.

Regarding C17G U60G, the self-cleavage was 0.25.

Turning to C17G U60A, the self-cleavage was 0.19.

In the case of A15U U66A, the self-cleavage worked out at 0.34.

As for A15U U66C, the self-cleavage came out at 0.23.

As to C17G U72A, the self-cleavage was determined as 0.21.

On to C17G U72C, for which the self-cleavage amounted to 0.31.

G16C U43C: the self-cleavage stood at 0.21.

With A15U G73U, the self-cleavage was determined as 1.17.

As to A15U G73A, the self-cleavage is 1.24.

G16U C23U: the self-cleavage was determined as 0.16.

With C17A U26A, the self-cleavage was determined as 0.36.

Consider C17U A28G, for which the self-cleavage was determined as 0.36.

Consider C17U A28U, for which the self-cleavage worked out at 0.41.

For the variant C17U A28C, the self-cleavage came out at 0.51.

Consider A15U U69C, for which the self-cleavage was 0.35.

As for A15U U69G, the self-cleavage worked out at 0.34.

Turning to A15U U69A, the self-cleavage worked out at 0.25.

As for G16U U74C, the self-cleavage turned out to be 0.58.

Turning to C17G C32U, the self-cleavage stood at 0.27.

On to C17G C32G, for which the self-cleavage was found to be 0.23.

For G16C G52U, the self-cleavage was determined as 0.48.

As to G16U U26A, the self-cleavage was found to be 0.26.

With G16U U26C, the self-cleavage was found to be 0.24.

For the variant C17U, the self-cleavage is 0.73.

As for C17G, the self-cleavage was 0.35.

C17A: the self-cleavage worked out at 0.32.

With G16A U26A, the self-cleavage came out at 0.34.

Turning to G16A U26C, the self-cleavage turned out to be 0.13.

For the variant G16C U25C, the self-cleavage was found to be 0.21.

For A15U G24C, the self-cleavage is 0.08.

Consider A15U G42A, for which the self-cleavage was 0.61.

In the case of C17G A75U, the self-cleavage was 0.52.

Turning to C17G G53C, the self-cleavage amounted to 0.45.

With A15U U58A, the self-cleavage is 0.16.

As to A15U U58C, the self-cleavage turned out to be 0.26.

Take G16A A47G: the self-cleavage was determined as 0.5.

Take A15U U78C: the self-cleavage is 0.7.

Turning to A15U U78A, the self-cleavage was 0.48.

Regarding C17G U26C, the self-cleavage was determined as 0.16.

In the case of C17G U26A, the self-cleavage is 0.29.

Regarding C17A U31A, the self-cleavage came to 0.15.

C17G U31C: the self-cleavage worked out at 0.28.

For G16A G73C, the self-cleavage was 0.86.

With G16U A35U, the self-cleavage stood at 0.23.

As for G16C U60C, the self-cleavage came out at 0.2.

Turning to G16C U60A, the self-cleavage was 0.29.

As to G16U U76A, the self-cleavage was 0.33.

As to G16U C39U, the self-cleavage came to 0.46.

Turning to G16C C23A, the self-cleavage turned out to be 0.5.

C17G U80A: the self-cleavage is 0.37.

For the variant G16A C23A, the self-cleavage was found to be 0.08.

With G16A A64U, the self-cleavage is 0.19.

Take G16A A64G: the self-cleavage was 0.45.

Turning to G16A C79A, the self-cleavage was 0.81.

Regarding A15U C59G, the self-cleavage stood at 0.1.

Regarding G16C U67C, the self-cleavage is 0.42.

On to G16C U54C, for which the self-cleavage was determined as 0.46.

On to A15U U51G, for which the self-cleavage came to 0.89.

In the case of A15U U51C, the self-cleavage came out at 0.54.

As for A15U U51A, the self-cleavage stood at 0.82.

With C17U C37A, the self-cleavage is 0.09.

On to G16A, for which the self-cleavage worked out at 0.34.

G16C: the self-cleavage was 0.35.

As to G16U, the self-cleavage came to 0.42.

For G16C U49C, the self-cleavage came out at 0.08.

On to A15U U26C, for which the self-cleavage came to 0.25.

Consider A15U U26G, for which the self-cleavage was 0.44.

Regarding A15U U26A, the self-cleavage amounted to 0.54.

With C17A A18G, the self-cleavage is 0.48.

In the case of C17A A18U, the self-cleavage was determined as 0.11.

As for G16U U49G, the self-cleavage is 0.14.

As to G16U U49C, the self-cleavage is 0.1.

For C17A A75U, the self-cleavage was found to be 0.2.

Regarding G16U C32A, the self-cleavage came out at 0.2.

As to G16C A56G, the self-cleavage came to 0.21.

As to C17A A64G, the self-cleavage is 0.24.

As to G16U U60G, the self-cleavage was 0.21.

For A15U G70C, the self-cleavage came out at 0.17.

Take A15U G70A: the self-cleavage amounted to 0.32.

On to G16A U69G, for which the self-cleavage was found to be 0.2.

As to G16A U69C, the self-cleavage turned out to be 0.16.

For G16A U69A, the self-cleavage came to 0.19.

Consider C17A U25C, for which the self-cleavage came to 0.2.

For C17A U25G, the self-cleavage stood at 0.47.

On to G16A C37U, for which the self-cleavage stood at 0.24.

Turning to A15U G61A, the self-cleavage came out at 0.37.

For the variant A15U G61C, the self-cleavage was found to be 0.07.

In the case of C17U C40U, the self-cleavage is 0.21.

For G16A G33U, the self-cleavage turned out to be 0.18.

For the variant G16A U78A, the self-cleavage turned out to be 0.52.

With G16A U78C, the self-cleavage was found to be 0.59.

C17A U66C: the self-cleavage came to 0.07.

As for G16U U78C, the self-cleavage was 0.27.

Take G16U C81U: the self-cleavage worked out at 0.35.

Regarding C17U G53C, the self-cleavage came to 0.66.

As for A15U C79A, the self-cleavage was found to be 1.03.

Take A15U C79U: the self-cleavage was found to be 1.14.

On to A15U C79G, for which the self-cleavage amounted to 1.08.

Regarding G16U A18G, the self-cleavage is 0.29.

On to G16C A20G, for which the self-cleavage is 0.11.

Turning to C17U A56G, the self-cleavage came out at 0.47.

For the variant C17U A56U, the self-cleavage stood at 0.22.

On to C17A A47U, for which the self-cleavage is 0.44.

On to C17A A47G, for which the self-cleavage came to 0.28.

In the case of C17G A65U, the self-cleavage is 0.19.

As to C17G A65G, the self-cleavage is 0.25.

As for C17U G55A, the self-cleavage came to 0.38.

For the variant G16C U66C, the self-cleavage stood at 0.16.

For the variant C17A A35G, the self-cleavage was 0.49.

G16A C39U: the self-cleavage is 0.15.

Turning to G16A C39A, the self-cleavage turned out to be 0.33.

With C17U G30U, the self-cleavage was found to be 0.09.

For the variant A15U G22C, the self-cleavage turned out to be 0.06.

On to G16U G24A, for which the self-cleavage is 0.19.

As to G16U G24U, the self-cleavage turned out to be 0.11.
